# According to US20240383982A1 (Genmab, published 2024):
# T1: human B7H4, full length, on cells (human, UniProt Q7Z7D3 25-282)
# T1 construct: Uniprot Q7Z7D3; Used for transfected HEK cells and for the B7H4-expressing human tumor cell lines (endogenous B7H4); also called VTCN1
# T1 sequence: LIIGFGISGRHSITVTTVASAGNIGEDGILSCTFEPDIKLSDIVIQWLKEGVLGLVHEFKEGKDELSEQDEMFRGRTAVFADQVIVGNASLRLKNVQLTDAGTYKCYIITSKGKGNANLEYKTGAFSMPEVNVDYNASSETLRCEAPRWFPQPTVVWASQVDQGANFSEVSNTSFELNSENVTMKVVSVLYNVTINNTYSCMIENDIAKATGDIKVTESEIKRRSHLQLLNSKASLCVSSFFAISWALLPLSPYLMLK
# T2: recombinant hIgG1 Fc-tagged cynomolgus monkey B7H4 (Creative BioMart, cat. no. VTCN1-1517R) (cynomolgus monkey, UniProt Q7Z7D3 25-259 (human entry))
# T2 construct: Bought protein; also called cynomolgus monkey B7H4 extracellular domain
# T2 sequence: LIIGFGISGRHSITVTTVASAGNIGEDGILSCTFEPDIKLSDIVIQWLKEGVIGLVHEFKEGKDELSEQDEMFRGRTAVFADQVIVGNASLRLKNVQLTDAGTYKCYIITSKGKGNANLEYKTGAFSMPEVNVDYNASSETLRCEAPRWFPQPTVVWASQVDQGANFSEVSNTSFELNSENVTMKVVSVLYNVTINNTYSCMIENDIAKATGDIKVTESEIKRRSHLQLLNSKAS
# T3: B7H4-IgV/B7H3-IgC
# T3 construct: also called chimeric molecule with the IgV domain of B7H4 and the IgC domain of B7H3
# T3 full-length chimeric protein on cells: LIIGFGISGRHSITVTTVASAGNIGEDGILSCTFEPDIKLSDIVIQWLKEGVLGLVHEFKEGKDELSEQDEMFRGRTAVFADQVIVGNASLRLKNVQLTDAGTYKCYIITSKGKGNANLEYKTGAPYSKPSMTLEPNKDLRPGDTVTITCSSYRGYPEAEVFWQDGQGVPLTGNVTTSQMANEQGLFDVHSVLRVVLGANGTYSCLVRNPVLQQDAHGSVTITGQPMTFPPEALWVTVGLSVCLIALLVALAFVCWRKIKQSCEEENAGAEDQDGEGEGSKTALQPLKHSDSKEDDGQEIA
# T4: B7H3
# T4 construct: also called human B7H3
# T4 full-length protein on cells: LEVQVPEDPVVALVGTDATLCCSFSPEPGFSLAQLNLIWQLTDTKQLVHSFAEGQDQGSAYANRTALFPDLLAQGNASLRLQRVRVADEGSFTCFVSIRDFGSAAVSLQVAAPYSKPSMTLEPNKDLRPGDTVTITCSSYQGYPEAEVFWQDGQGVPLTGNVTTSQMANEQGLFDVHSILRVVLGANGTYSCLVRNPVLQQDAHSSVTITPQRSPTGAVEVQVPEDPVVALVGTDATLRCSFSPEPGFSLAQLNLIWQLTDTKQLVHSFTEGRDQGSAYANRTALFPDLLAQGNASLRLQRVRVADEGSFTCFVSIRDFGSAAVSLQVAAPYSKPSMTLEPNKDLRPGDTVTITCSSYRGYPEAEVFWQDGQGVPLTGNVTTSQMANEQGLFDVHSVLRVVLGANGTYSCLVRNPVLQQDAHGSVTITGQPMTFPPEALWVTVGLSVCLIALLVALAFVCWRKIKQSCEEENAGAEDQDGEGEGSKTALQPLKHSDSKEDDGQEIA
# B1: antibody B7H4-C1 (antibody, V domains shown)
# VH: QVQLQQWGAGLLKPSETLSLTCAVYGGSFSGYYWSWIRQPPGKGLEWIGEINHSGSTNYNPSLKSRVTISIDTSKNQFSLKLTSVTAADTAVFYCARGLFNWNFDSWGQGTLVTVSS
# VL: DIQMTQSPSSLSASVGDRVTITCRASQGIRNDLGWYQQKPGKAPKRLIYGASSLQSGVPSRFSGSGSGTEFTLTISSLQPEDFATYYCLQHNSYPRTFGQGTTVEIKR
# notes: Parent of B7H4-C1-N52S
# B2: bsIgG1-huCD3-H101G-FEALxB7H4-C5-FEAR (bispecific antibody)
# heavy 1: not shown
# light 1: not shown
# heavy 2: QLQLQESGPGLVKPSETLSLTCTVSGGSIKSGSYYWGWIRQPPGKGLEWIGNIYYSGSTYYNPSLRSRVTISVDTSKNQFSLKLSSVTAADTAVYYCAREGSYPNQFDPWGQGTLVTVSSASTKGPSVFPLAPSSKSTSGGTAALGCLVKDYFPEPVTVSWNSGALTSGVHTFPAVLQSSGLYSLSSVVTVPSSSLGTQTYICNVNHKPSNTKVDKRVEPKSCDKTHTCPPCPAPEFEGGPSVFLFPPKPKDTLMISRTPEVTCVVVAVSHEDPEVKFNWYVDGVEVHNAKTKPREEQYNSTYRVVSVLTVLHQDWLNGKEYKCKVSNKALPAPIEKTISKAKGQPREPQVYTLPPSREEMTKNQVSLTCLVKGFYPSDIAVEWESNGQPENNYKTTPPVLDSDGSFFLYSRLTVDKSRWQQGNVFSCSVMHEALHNHYTQKSLSLSPGK
# light 2: not shown
# notes: also called bslgG1-huCD3-H101G-FEALxB7H4-C5-FEAR
# B3: bsIgG1-huCD3-FEALxB7H4-C1-N52S-FEAR (bispecific antibody)
# heavy 1: not shown
# light 1: not shown
# heavy 2: QVQLQQWGAGLLKPSETLSLTCAVYGGSFSGYYWSWIRQPPGKGLEWIGEISHSGSTNYNPSLKSRVTISIDTSKNQFSLKLTSVTAADTAVFYCARGLFNWNFDSWGQGTLVTVSSASTKGPSVFPLAPSSKSTSGGTAALGCLVKDYFPEPVTVSWNSGALTSGVHTFPAVLQSSGLYSLSSVVTVPSSSLGTQTYICNVNHKPSNTKVDKRVEPKSCDKTHTCPPCPAPEFEGGPSVFLFPPKPKDTLMISRTPEVTCVVVAVSHEDPEVKFNWYVDGVEVHNAKTKPREEQYNSTYRVVSVLTVLHQDWLNGKEYKCKVSNKALPAPIEKTISKAKGQPREPQVYTLPPSREEMTKNQVSLTCLVKGFYPSDIAVEWESNGQPENNYKTTPPVLDSDGSFFLYSRLTVDKSRWQQGNVFSCSVMHEALHNHYTQKSLSLSPGK
# light 2: DIQMTQSPSSLSASVGDRVTITCRASQGIRNDLGWYQQKPGKAPKRLIYGASSLQSGVPSRFSGSGSGTEFTLTISSLQPEDFATYYCLQHNSYPRTFGQGTTVEIKRTVAAPSVFIFPPSDEQLKSGTASVVCLLNNFYPREAKVQWKVDNALQSGNSQESVTEQDSKDSTYSLSSTLTLSKADYEKHKVYACEVTHQGLSSPVTKSFNRGEC
# notes: also called bslgG1-huCD3-FEALxB7H4-C1-N52S-FEAR; CD3xB7H4
# Experiments:
# [1] = target: T1, human B7H4, full length, on cells; assay: binding to tumor cells, as CD3 bispecific (monovalent) and IgG1 (bivalent)
# [2] = target: T2, recombinant hIgG1 Fc-tagged cynomolgus …; assay: BLI (Octet HTX); Fc-tagged cynomolgus B7H4 coupled to AR2G sensor, bispecific antibody in solution (monovalent B7H4 binding); 2nd experiment (R^2 0.97, below the 0.98 threshold); R^2 0.97, below the 0.98 quality threshold (footnote b)
# Procedure: (§1) In addition, the affinity of for cynomolgus monkey B7H4 was determined by BLI. […] Amine Reactive 2nd Generation (AR2G) biosensors (FortéBio, cat. no. 18-5092) were activated by reaction with 20 mM EDC (N-(3-Dimethylaminopropyl)-N′-ethylcarbodiimide hydrochloride) (FortéBio, cat. no. 18-1033) and 10 mM s-NHS (N-hydroxysulfosuccinimide sodium salt) (FortéBio, cat. no. 18-1067) for 300 s. The activated sensors were loaded with 10 μg/mL recombinant hIgG1 Fc-tagged cynomolgus monkey B7H4 (Creative BioMart, cat. no. VTCN1-1517R) in 10 mM Sodium Acetate pH 4.0 (FortéBio, cat. no. 18-1068) for 600 s and quenched with 1 M ethanolamine pH 8.5 (FortéBio, cat. no. 18-1071) for 300 s. […] A molecular mass of 150 kDa of the antibodies was used for calculations. For each antibody a reference sensor was used, which was incubated with Sample Diluent instead of antibody.
# (§2) Data were acquired using Data Acquisition Software v9.0.0.49d (FortéBio) and analyzed with Data Analysis Software v9.0.0.12 (FortéBio). Data traces were corrected per antibody by subtraction of the reference sensor. The Y-axis was aligned to the last 10 s of the baseline, Interstep Correction alignment to dissociation and Savitzky-Golay filtering were applied. Data traces with a response<0.05 nm were excluded from analysis. […]
# [3] = target: T1, human B7H4, full length, on cells; assay: flow cytometry on MDA-MB-468 tumor cells [MDA-MB-468 right panel]
# Procedure: (§3) Cells (3×10⁴ cells/well) were incubated in polystyrene 96-well round-bottom plates (Greiner bio-one, cat. no. 650180) with serial dilutions of antibodies (ranging from 0.000458 to 30 μg/mL in 4-fold dilution steps) in 100 μL PBS/0.1% BSA/0.02% azide (staining buffer) at 4° C. for 30 min. Experiments were performed in technical duplicate. After washing twice in staining buffer, cells were incubated in 50 μL secondary antibody at 4° C. for 30 min. As a secondary antibody, R-Phycoerythrin (PE)-conjugated goat-anti-human IgG F(ab′)₂ (1:500 in FACS buffer; Jackson ImmunoResearch Laboratories, Inc., West Grove, PA, cat. no. 109-116-098), was used. Cells were washed twice in staining buffer, re-suspended in 30 μL FACS buffer containing Topro-3 (1:10,000 dilution) and analyzed on an iQue Screener (Intellicyt Corporation, USA). Binding curves were analyzed using non-linear regression (sigmoidal dose-response with variable slope) using GraphPad Prism V7.02 software (GraphPad Software, San Diego, CA, USA).
# (§4) Binding was analyzed by flow cytometry as described above.
# [4] = target: T3, B7H4-IgV/B7H3-IgC; assay: flow cytometry, HEK cells transiently transfected with B7H4-IgV/B7H3-IgC, PE anti-human IgG F(ab')2 [panel B7H4-IgV/B7H3-IgC]
# Procedure: After washing twice in FACS buffer, cells were incubated with secondary antibody at 4° C. for 30 min. […] Next, cells were washed twice in FACS buffer, re-suspended in 20 μL FACS buffer and analyzed on an iQue Screener (Intellicyt Corporation, USA).
# Further experiments were conducted to study the B7H4 domain specificity of the B7H4 antibodies in more detail, by analysis of full dose-response curves.
# [5] = target: T2, recombinant hIgG1 Fc-tagged cynomolgus …; assay: BLI (Octet HTX); Fc-tagged cynomolgus B7H4 coupled to AR2G sensor, bispecific antibody in solution (monovalent B7H4 binding); 2nd experiment (R^2 0.97, below the 0.98 threshold)
# Procedure: as §1, §2
# [6] = target: T2, recombinant hIgG1 Fc-tagged cynomolgus …; assay: BLI (Octet HTX); Fc-tagged cynomolgus B7H4 coupled to AR2G sensor, bispecific antibody in solution (monovalent B7H4 binding); 1st experiment
# Procedure: as §1
# Data were acquired using Data Acquisition Software v9.0.0.49d (FortéBio) and analyzed with Data Analysis Software v9.0.0.12 (FortéBio). Data traces were corrected per antibody by subtraction of the reference sensor. The Y-axis was aligned to the last 10 s of the baseline, Interstep Correction alignment to dissociation and Savitzky-Golay filtering were applied. Data traces with a response<0.05 nm were excluded from analysis. The data was fitted with the 1:1 Global Full fit model using a window of interest for the association and dissociation times set at 100 s and 200 s respectively.
# [7] = target: T1, human B7H4, full length, on cells; assay: flow cytometry on SK-BR3 tumor cells [panel SK-BR3 cells]
# Procedure: as §3, §4
# [8] = target: T4, B7H3; assay: flow cytometry, transiently transfected HEK cells, MFI as % of IgG1-B7H3-BRCA84D
# Procedure: (§5) Expression constructs were prepared encoding human B7H4, human B7H3 (Uniprot accession no. Q5ZPR3-1; SEQ ID NO: 9), or a chimeric molecule containing the IgV domain of B7H3 and the IgC domain of B7H4 (B7H3-IgV/B7H4-IgC; SEQ ID NO: 11), or a chimeric molecule containing the IgV domain of B7H4 and the IgC domain of B7H3 (B7H4-IgV/B7H3-IgC; SEQ ID NO: 10). HEK cells were transiently transfected to express these constructs.
# (§6) Cells (3×10⁴ cell/well) were incubated in polystyrene 96-well round-bottom plates (Greiner bio-one, cat. no. 650101) with serial dilutions of antibodies (range 0.0046 to 10 μg/mL in 3-fold dilution steps) in 50 μL PBS/0.1% BSA/0.02% azide (FACS buffer) at 4° C. for 30 min. After washing twice in FACS buffer, cells were incubated with secondary antibody at 4° C. for 30 min. As a secondary antibody, R-Phycoerythrin (PE)-conjugated goat-anti-human IgG F(ab′)₂ (1:500 in staining buffer; Jackson ImmunoResearch Laboratories, Inc., West Grove, PA, cat. no. 109-116-098) was used. Next, cells were washed twice in FACS buffer, re-suspended in 20 μL FACS buffer and analyzed on an iQue Screener (Intellicyt Corporation, USA).
# [9] = target: T1, human B7H4, full length, on cells; assay: cell-based or functional assay
# [10] = target: T3, B7H4-IgV/B7H3-IgC; assay: flow cytometry, transiently transfected HEK cells, MFI as % of the control antibody of the panel [continued) III]
# Procedure: as §5, §6
binder,measurement,setting,value
B1,binding result,[1],binds
B2,Kd,[2],6 nM
same,EC50 (read off the curve),[3],~0.6 µg/mL
same,EC50 (read off the curve),[4],~1 µg/mL
same,koff,[5],0.0025 s⁻¹
same,kon,[5],420000 M⁻¹ s⁻¹
B3,Kd,[6],21 nM
same,koff,[6],0.003 s⁻¹
same,kon,[6],140000 M⁻¹ s⁻¹
same,EC50 (read off the curve),[7],~1 µg/mL
same,binding result,[8],no binding (tested: 10 µg/mL)
same,"IC50 of T cell-mediated cytotoxicity, HCC1954 cells, highest of 4 donors",[9],0.008 µg/mL
same,"IC50 of T cell-mediated cytotoxicity, HCC1954 cells, lowest of 4 donors",[9],0.001 µg/mL
same,"IC50 of T cell-mediated cytotoxicity, MCF7 cells, highest of 4 donors",[9],0.025 µg/mL
same,"IC50 of T cell-mediated cytotoxicity, MCF7 cells, lowest of 4 donors",[9],0.012 µg/mL
same,"IC50 of T cell-mediated cytotoxicity, MDA-MB-468 cells, highest of 4 donors",[9],0.004 µg/mL
same,"IC50 of T cell-mediated cytotoxicity, MDA-MB-468 cells, lowest of 4 donors",[9],0.001 µg/mL
same,"IC50 of T cell-mediated cytotoxicity, OVCAR3 cells, highest of 4 donors",[9],0.012 µg/mL
same,"IC50 of T cell-mediated cytotoxicity, OVCAR3 cells, lowest of 4 donors",[9],0.003 µg/mL
same,"IC50 of T cell-mediated cytotoxicity, SK-BR3 cells, highest of 4 donors",[9],0.016 µg/mL
same,"IC50 of T cell-mediated cytotoxicity, SK-BR3 cells, lowest of 4 donors",[9],0.002 µg/mL
same,binding result,[10],no binding (tested: 10 µg/mL)
